Results on 19 sequences are retold here after a protein production outcome set (Wang et al. 2014).

The series in a line: label from the status in PepcDB records.
As to “MLTLPAPEPIAHMEVTSYRAGVQGGSGLWRGQAVYVKTLVSDDPDRVAMFHHEGAVAARLSHPLVTPLLAHTPNQLIFPLLRGGTLRDLVRCGPLDADAATQVTWGVLQAVSHLHGRGVTHHDLKPENVLLIGGQSQVEAVRLIDFGMSHAAGLPLDIHSGTRMGTPQFMAPEQFQGVRGDPRSDLYSVGVLLFDCLAGHPPYADALGWLVGISEERAAAPGPSALHPLMLRAIQRDRDSRPQSAAEMLAALADARQQLGLPELEHIAPEGQTAGENA”, the protein production result is given as “failed”.
Under “MKVTQLSSETLDRAHERFEETLAQMTVAEANTMPAPLIKSVTWLMWHTARELDLQISALNHSDPLWLSQHWTEKFALDLPDETEDWHHTPEEAAKVVVAEKQLLSDYLAASVALTKSYLDQIKEEQLSDVIDKNWTPPVTRQVRLVSAIDDAVMHSGQAVYTRRLVIGK” stands “not failed”; under “MKAERPDTRKLKALKRGHIAEYRAALCLMLKGYRIVAMRYRTRLGEIDIIARRGDLVACVEVKARVSLEDAVFAVTDTAQRRIRAASDLWLSRQGDFHRLSVRYDIVAVTPWRWPRHLPDAF”, “failed”; under “MLLDVKFTKNTCTKLIGLWLKFFLFYSLLPFSTSAQEASFRFKRLGLEDGLSQISVNGIAQDVNGFIWFATQDGLNKYDGYQITTYRHQPSDPNSIINNHIHSIFKDSKHNLWIGSYGGLSKYEPKTDNFTHYNSPSLNDSDGKVGYIQSLFEDSDGELWLSSNMGLYRYSIDTNTYILYLPDDNKPNSVIHSEIKSIAEDSIGNIWIGTTIGVSKYNKRNNTFTNYQHSPENPHSLSNNFVLKIYKDSQNNLWFGTFGGGLDRYDNDTSKFVHHRTNTQNKNSLGNNYIRTILEDSAGMLWLGTNNGLYAFDSSKLIFQRFRHSVNDRHSLSHDVIYSLFQDKDGSLWAGTLGGGVNLFRPSTNVFKHYKSNPNNPESLNANMVYAIYDDDEYVWVGTSGGGLNKLNKTTGKFSNFTEPETSVGLGLNKVNYIIKASEAELWLSTNSDGLLKYNKNTGNITQYKHHPDDRNSLSNNRARGLAIDKEGNLWIGTAGGGLNKLDPISGQFTHFMPDTDNPNSISTNFIRCLLYDSKGRLWTGSYGQGLNRFDFDTQTFINFNKDSVKEPILSNKFIRSIFEDKSGNIWVLTNGGIIKYDESKGSFHSYTTTDGLPSNVVYGALEDQKNNLWLSTNNGLSKFNPQNITFENYTKEEGIQENEFNTGSFFKNKTGEMYFGGINGFTLFHPDKIKKDKTIPTVSFTNLLLYNDAIAIGESERFSSHISSTNALNFAHNDDVITFEFSALSYSQANNISYRYQLQGFSDNWIETDHNHRRATFTNLSKGDYILKVKASNRNRSWGEETTDLRITIAAAYWETTWFRGLLLAIGFIVFVIAIKWREKALNNQNLVLDIMVKERTKELESSQEYSNKLEKLVQKRTLNLQKANTALEQSSITDALTGIRNRRFLDQQLSSDWAIQSRNNLPLSILMIDIDYFKKYNDYYGHQQGDECLQKIAKEIQSVINRPTDNLCRYGGEEFVVITYNDAEGAKHIAKLILKKLDELALVHLTSDKGIVSVSIGLGTMVPSIEVAPARLLKYADDALYQAKNNGRDQLC”, “failed”.
The result for “MENEGASTVCPLDPGSPLFLSGDGFEPVGVLFPHAVFHFPSKEKKEAYDFMDKVVDKHRRLCDERQRLGLKNESEVDVKNEGSTSNPEPAVKEPVPEPLP” reads “not failed”; that for “MTTSGERRVAGLAMIGSAACWGSATVMSRDLLVSMTSIQLLLVQLMASVCVLLALAAPRFPWTYRSREMTKGALCGVLEPGLAYVVGLAGLAQTTAGRASIISASEPVLIVLVAWVLFNQRPGLRLMAAIAIAVGGLVLVSWSPVVEDRGGAFRGDMMVVLATLFAAGYVVISSRIVGSFPAASLASGQQMVGLAFAMLVYAGAMAHGDDMGGFGAIPGGTLAYAALSGVVQYALAFWLYLIGLRYLSAGAAGLWLTLIPVFGLAGAWLWLGERPGLLTVLGAIVIVSAVVLGNRGGTE”, “failed”.
The result for “MSELARLRQKVSDGLGLATPAADPADKTTRLANEEHASDVRAVALYVAISLSVGAFAAALIALAVPYAVTVVLACFFGAVLMGALFYALFGKSFPLPGTLPADYSDVRLRQTQNRSLIAEMQESMGDIVVIRNMNRRIVEANRVFREMTGCTSPEGLSCEEIGIAFRPGDRVHAYDVEIATPFGQRIFSWHDVVTRDLASSRLMISSIARDVTEERLALAEREDARLRAEKADAEKARLLATVSHEIRLPLSGMLGMNHLLSQTKLNQEQRNYLDGMKQSGQSLVQLVEDLLDYSTMEAGRFRLNPRAENLRRLIESIVEMLAHRAHEKGIEIASFVTPDVPDYLDFDPARLRQVLFNLIGNAVKFTQVGGVVIRARMVDGELQITVEDTGPGMSEAEQARIFGEFEQAGPLSQRSAGTGLGLAISARIVREFGGNLTVSSRRGEGSTFKLVFRPGRAPAEMPDSGRSHCLQHTNVLLIAPEGVAAAVTMEAIEAFGGKCILIHQPEDLDRLRNEPVSRTADLTDIIVDLRISALFRDALRDWPQQTIRRTLLVSPEERASTTHASFDAWLIRPLREKSLIDVLCGRLRGIERRDAINDNHPDVGFSSRVVERASGVEILVAEDDAVNARIIRAVLEKSGYIVRAVDNFQALQQSVASGASRLPNLIVSDLNMPGGEGLDVLPDLLGKLKDERNIPVIILSGDAGAGTAEILLKAGAGAVLAKPADPRRLVEEIRRLLEAKRVLSS” reads “failed”; that for “MRRRRRRDGFYLAPDFRHREAEDMAGVFDIDLDQPEDAGSEDELEEGGQLNESMDHGGVGPYELGMEHCEKFEISETSVNRGPEKIRPECFELLRVLGKGGYGKVFQVRKVTGANTGKIFAMKVLKKAMIVRNAKDTAHTKAERNILEEVKHPFIVDLIYAFQTGGKPYLILEYLSG”, “not failed”.
“MSQTTVVNGVNVDQLMATIEQIKAKPEIAQFKFRATNQWMGGTHNQATIKDFYGACAEDDTRKPMVFDLDEPPVLLGENRGANPVEYLLVALSGCLTTSLVAHAAARGIALRGVKSRYEGDIDLRGFLGLSEEVPVGYREIRVFFSIDADLTDGQKEELIRMAQKYSPVYNTVAKPVPVAVLLDRG”: the protein production entry was “not failed”.
For “MKISAIKTWLPLLIIIVLLGLFLGLGLNKYVSFASLRDNHEWLIAITKSHFYLVSFVFIIIYTVAVALSIPGAIFLTLIGGFLFGILWGTFLVVLSATLGATILFFAVQSSLGEVFSKRASGWVKRMRSGFKDNAFSYLLTLRLIPLFPFWVINIVSAVLGVSASTFIIATFIGIIPGSIVYVSVGNGLGELFAASLQPNLGIIFEPKFILPLLGLAALSLIPVFYKKKGKQGTEKMKDKDLFCDLAIIGGGSAGLSIAAGCSQLGLQVVLVEPNKMGGDCLNYGCIPSKTLLNTAKIFYQTKHSTVLGIQAKSVKIDFLQVMQQVHNVIACIAKNDSVERFTSLGVQVIQEAGHFIGPKQFKLKRKIIRAKHFVIATGSSPAIPPIQNLNKVSYLTNETIFNLKVQPEHLIVIGGGPIGCELAQAFAMLGSKVTILEAFTILPKDDADCVAIIRSQLESMQIALYEQIKINKIEESADKTISVHLENQDNPITITGSHLLVSTGRVANVDGLGLEKAGVQYTTRGINTNARLQTTNKKIYAIGDVTGPYQFTHMASYQAGIALRNIAFKWPAKVDYKAVPWVTYTEPELAHVGLLASEALKDPTLKITEFAFAEVDRAQAENKVNGKIKIITGKKAKILGVSIVGAHAGELILPWVIAVKERKSLRTFTDAIAAYPTFSEISKRVAGEYYKPFIFSSKIRTFVRWLNKLG”, the protein production entry is listed as “failed”.
Under “MRQLTAAALYENLFGPLALAYAPGRPFEWRSNGRAWRARGRLGAFGRPRLEPGTVECRTGRAWRQASIADAVAALPGAPQEHARLRHELNQTEALLRWNRVNAPRHDRRRMSFSALDAAIDEGHPYHPCFKSRTGFDEHDHRCYGPEADGTFQLDWLGVARELLHLSFPSTEASFWKRELGAAGLADIEARAAALGLEHDRFGLMPIHPWQWRDLSADRLRPLLQSGRIHYLGAAGDRYRASQSVRTLSNAQAPHRSSVKLALGIVNTSTRRNIEAHSVATAPVLSRWLDTILDSDPLFRLRYRLDIVSEFAGAIVDRDGPLGGEIAAIWRESVESKLADGESAVPFNALMAIEADGLPFIDPWLQRYGLKPWLDRLVEVAVLPVWRLLVVHGIATEAHGQNMVLVHRDGWPERLILRDFHDSLEFVPDFLADPNLAPDFLTLDPRYRRALPNQYYWMERPEDLRDLFVDCLFVFNLSEISHLVQSFYGISEGAFWHRVSLRLAADIAEHGLGERVARLGFGTPEIVIESLLARKLGLSGDALQHNVPNPLAAVVPLAREYA” stands “failed”; under “MTTNIAANSGGIVFHFLGTGGAQQVPAFGCECEVCQQAQRNESKRRRACCAAITTKDRIILIDAGLPELSPYLLPYPQRHILLTHYHMDHVQGLFPLRWGYGEPIPVFGPPDEAGCDDLFKHPGILHFQKPLMAFQPFELDGIRITPVPLIHSKLTYGYLIQTPTHTLAYLTDTIGLPPETTQFLASHTLDYAIVDCSHPPQTMLPRNHNDITRALEIFTQLNPKQLYLTHISHELDRWLQTQTLLPENVHAAYDGLVLGLLEHHHHHH”, “failed”; under “MEKYFGNAYRGDPGVPHADADRFVNIWIGSAAFSVLTWVNPYMWQLSNQFKYFSLSLSLELSNSNLGTFGFSCLISELGFLFMCFCSSLNCSGENYVLILLV”, “failed”.
Under “MLACAIALRLAAAVAAPVDSPTVDVAPPAPAEVAPPGPGRTAAPDLSAPPPPPADRPGPWRVYGAAAAGAAASDVLFAGIFAIGMVQLFGDLWDGEASADAGGLTLALVGLGGFLAVTPAVTVWAAQRVAGRERTAAAYWACFGVRLLGFAAANAFPAATLATELVLAPWVVSRIVMSGAPAATPLRPEVPAPAGADGPATRARPLRDPALAWR” stands “failed”; under “MAVYANTSVQDFYEFWLEEVKKKSLSYNSYYSFKKTVQNYILPLYGRLSMGKLRKNHVKRIYKKTYETSPSVAKIVKTVLTTSFKYALRYGYVEEDYVTGLKWNRVILEHHHHHH”, “failed”.
Under “MLKFLSVRVEDHIAVATLNHAPANAMSSQVMHDVTELIDQVEKDDNIRVVVIHGEGRFFSAGADIKEFTSVTEAKQATELAQLGQVTFERVEKCSKPVIAAIHGAALGGGLEFAMSCHMRFATESAKLGLPELTLGLIPGFAGTQRLPRYVGKAKACEMMLTSTPITGAEALKWGLVNGVFAEETFLDDTLKVAKQIAGKSPATARAVLELLQTTKSSHYYEGVQREAQIFGEVFTSEDGREGVAAFLEKRKPSFSGR” stands “not failed”; under “SESQSEEIDCNDKDLFKAVDAALKKYNSQNQSNNQFVLYRITEATKTVGSDTFYSFKYEIKEGDCPVQSGKTWQDCEYKDAAKAATGECTATVGKRSSTKFSVATQTCQITPAEGPVVTAQYDCLGCVHPISTQSPDLEPILRHG”, “not failed”.
In the case of “MLPQILIVILSLIEGLDPYKGLLFSYYFYSFKKVKESFVVPLLSTLSYYSLGILVVFFTFSSLQSSNSTKVIVIFLVIIHILMKMFLGKLLHYTGSMRVSVYNLVKSTFLNSILQMNVILLIILAIIVNTLFVFLPVGVFIVREVTYFIVLKKNNVLVLLTKFNFDYIYSVTLLILALAVLLQS”, the protein production entry is recorded as “failed”.
Under “MHELIRDITLCILFAWMLGLLAHFSRQPLILAYLIAGFCIGPFGAGWVKSQESISVISELGLIFMLFMIGLEIDLKKIVRAGKVILFAAGGQLPGGCLLGVLFFAGIGLSLGGGHFDAVYLCIACALSSTVIIVKVLYEKRELDTLPGRITLGVLVLQDIFAILFLAVQPSLANLQVSVILLSIGRVAVLVAAALLVSRYVLPRLFHQIARRPELILLGALAWCFLVAETAERLSLSREMGALIAGVSLSTFPYALDVTAKVTTLRDFFITLFFVALGMTIPVPGLSVIGLALMIAAFTVVSRLVTTFTPLYLMKQGLRASLLPALNLAQISEFSLVVIQTGVTDNHIAAETANAASFAFVVLAVLSTFVMTRSDEIARWAIGPLKRIGLRDLDHGNGHAEEGHEGGHGEARRIVILGFFRAASALLAEIERQAPVLLEQITVVDFNPNVYQTLLSRGLHVIYGDISSADTLLHAGVGKSEMIILSVPDALLKGASNEKLVRHVRTLNPTAMIVATADLLSDVGELYEAGASYVTVTRLSDAHELFTVIEAAQAGLLADKRAELDLRLGERREVLP” stands “failed”.
